One block for each binder: values may come before it.
B2: DapF, diaminopimelate (DAP) epimerase, purified (enzyme, E. coli, UniProt P0A6K1 1-274, looked up)
chain: MQFSKMHGLGNDFMVVDAVTQNVFFSPELIRRLADRHLGVGFDQLLVVEPPYDPELDFHYRIFNADGSEVAQCGNGARCFARFVRLKGLTNKRDIRVSTANGRMVLTVTDDDLVRVNMGEPNFEPSAVPFRANKAEKTYIMRAAEQTILCGVVSMGNPHCVIQVDDVDTAAVETLGPVLESHERFPERANIGFMQVVKREHIRLRVYERGAGETQACGSGACAAVAVGIQQGLLAEEVRVELPGGRLDIAWKGPGHPLYMTGPAVHVYDGFIHL
notes: DapF, diaminopimelate epimerase, E. coli; The text sets 'purified DapF' (untagged) against His-DapF in the pull-downs; also called purified DapF; untagged DapF; source: purified
B3: RppH, RNA pyrophosphohydrolase, purified (enzyme, E. coli, UniProt P0A776 1-176, looked up)
chain: MIDDDGYRPNVGIVICNRQGQVMWARRFGQHSWQFPQGGINPGESAEQAMYRELFEEVGLSRKDVRILASTRNWLRYKLPKRLVRWDTKPVCIGQKQKWFLLQLVSGDAEINMQTSSTPEFDGWRWVSYWYPVRQVVSFKRDVYRRVMKEFASVVMSLQENTPKPQNASAYRRKRG
notes: RppH (NudH), RNA pyrophosphohydrolase, E. coli; Named only 'RppH' in gel filtration, SPR and the activity assays; The methods describe only the purification of His-RppH, so this may be the same protein as m1; also called purified RppH; NudH; source: purified

What was measured:
[1] = target: T1, His-RppH co-expressed with DapF from pDuet-RD (E. coli, UniProt P0A776 1-176); test: pull-down; DapF and His-RppH co-expressed from pDuet-RD in E. coli ER2566; crude extract loaded onto a TALON metal affinity column; SDS-PAGE; conditions: partners not purified
T1 construct: RppH (NudH), RNA pyrophosphohydrolase, E. coli; source: E. coli ER2566 harboring pDuet-RD (from the pET-duet vector), in crude extract
T1 sequence (looked up): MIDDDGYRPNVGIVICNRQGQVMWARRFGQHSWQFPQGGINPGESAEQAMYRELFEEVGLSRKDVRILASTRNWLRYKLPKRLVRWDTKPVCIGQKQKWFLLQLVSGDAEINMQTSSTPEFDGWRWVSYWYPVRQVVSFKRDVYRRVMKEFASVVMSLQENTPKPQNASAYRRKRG

[2] = target: B3; test: SEC; Superose 12 10/300 GL, 50 mM Tris-HCl pH 8.0, 100 mM NaCl, room temperature, 0.5 ml/min; 50 μg RppH, 400 μg DapF (or 100 μg DapF(C73&217A)) or both in 250 μl, incubated 10 min on ice; fractions on SDS-PAGE; conditions: both partners purified
[3] = target: the molecule itself; test: as above
[4] = target: T2, His6-RppH (6His-tagged form of RppH, RNA pyrophosphohydrolase) (E. coli, UniProt P0A776 1-176); test: pull-down; purified DapF mixed with varying amounts of His-RppH or the control protein His-enzyme IIA^Ntr on the metal affinity resin; band intensities on gel; conditions: both partners purified
T2 construct: RppH (NudH), RNA pyrophosphohydrolase, E. coli; rppH gene amplified from MG1655 genomic DNA with primers at the ATG start codon and 20 bp downstream of the TAA stop codon; also called His-RppH; His-tagged RppH
T2 sequence (looked up): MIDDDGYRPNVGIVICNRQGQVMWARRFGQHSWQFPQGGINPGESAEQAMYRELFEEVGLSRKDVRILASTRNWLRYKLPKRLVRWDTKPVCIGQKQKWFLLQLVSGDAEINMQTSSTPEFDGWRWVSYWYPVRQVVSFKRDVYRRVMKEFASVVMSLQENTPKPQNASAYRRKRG

[5] = target: T3, DapF(C73&217A) (E. coli, UniProt P0A6K1 1-274, C73&217A | C73&217A); test: SEC; Superose 12 10/300 GL, 50 mM Tris-HCl pH 8.0, 100 mM NaCl, room temperature, 0.5 ml/min; 50 μg RppH, 400 μg DapF (or 100 μg DapF(C73&217A)) or both in 250 μl, incubated 10 min on ice; fractions on SDS-PAGE; conditions: both partners purified
T3 construct: DapF, diaminopimelate epimerase, E. coli; the two catalytic cysteines C73 and C217 substituted to alanine; The methods list His-DapF(C73&217A) among the purified proteins; results and legends call it DapF(C73&217A); also called His-DapF(C73&217A); mutant DapF
T3 sequence (looked up): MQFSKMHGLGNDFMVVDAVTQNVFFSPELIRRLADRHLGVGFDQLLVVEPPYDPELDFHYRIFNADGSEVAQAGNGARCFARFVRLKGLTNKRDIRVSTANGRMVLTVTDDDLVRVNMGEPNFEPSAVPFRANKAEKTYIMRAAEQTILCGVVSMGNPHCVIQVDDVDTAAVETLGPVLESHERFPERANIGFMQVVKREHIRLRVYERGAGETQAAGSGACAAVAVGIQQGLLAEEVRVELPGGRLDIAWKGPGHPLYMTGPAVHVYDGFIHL

[6] = target: B2; test: SPR; BIAcore 3000; RppH amine-coupled to a CM5 chip (0.7 ng/mm^2); DapF at 20, 50 and 70 μg/ml flowed at 10 μl/min; 10 mM HEPES pH 7.2, 150 mM NaCl, 10 mM KCl, 1 mM MgCl2, 0.5 mM EDTA; fit assumes a dimer–dimer interaction; conditions: both partners purified

stoichiometry N [1]: 1 DapF:RppH
B1: DapF co-expressed with His-RppH from pDuet-RD (enzyme, E. coli, UniProt P0A6K1 1-274, looked up)
chain: MQFSKMHGLGNDFMVVDAVTQNVFFSPELIRRLADRHLGVGFDQLLVVEPPYDPELDFHYRIFNADGSEVAQCGNGARCFARFVRLKGLTNKRDIRVSTANGRMVLTVTDDDLVRVNMGEPNFEPSAVPFRANKAEKTYIMRAAEQTILCGVVSMGNPHCVIQVDDVDTAAVETLGPVLESHERFPERANIGFMQVVKREHIRLRVYERGAGETQACGSGACAAVAVGIQQGLLAEEVRVELPGGRLDIAWKGPGHPLYMTGPAVHVYDGFIHL
notes: DapF, diaminopimelate epimerase, E. coli; source: E. coli ER2566 harboring pDuet-RD (from the pET-duet vector), in crude extract

Binder: B2
stoichiometry N [2]: 1 DapF:RppH (2:2)
stoichiometry N [3]: 2
stoichiometry N [4]: 1 DapF:RppH

Binder: B3
binding result [5]: binds
Kd [6]: ~5.2 nM

— PMC4227774, “RppH-dependent pyrophosphohydrolysis of mRNAs is regulated by direct interaction with DapF in Escherichia coli” (Nucleic Acids Research, 2014)
